Laboratory results as given in the supplement of paper PMC10567573.

B1: ZNF449 (parent)
chain: FQEYDTDCEVFRQRFRQFQYREAA

Variants of: B1
Experiment: protein stability index of a GFP-peptide fusion (GPS, HEK-293T) (PSI 1-6); higher = more stable
Conditions: c terminus: a fixed tail appended
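Further: lentivirally expressed fusions sorted by FACS into six bins by GFP to DsRed ratio, PSI derived from sequencing read proportions per bin multiplied by bin number.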

Row | Variant | protein stability index
1 | FQEYDTDCEVFRQRFRQFVYREAA | 2.48
2 | FQEYDTDCEVFRQRFRQFYYREAA | 2.22
3 | FQEYDTDCEVFRQRFRQFNYREAA | 2.29
4 | FQEYDTDCEVFRQRERQFQYREAA | 2.92
5 | FQEYDTDCEVFRQRARQFQYREAA | 3.02
6 | FQEYDTDCEVFRQRVRQFQYREAA | 2.98
7 | FQEYDTDCEVFRQRSRQFQYREAA | 2.57
8 | FQEYDTDCEVFRQRYRQFQYREAA | 2.17
9 | FQEYDTDCEVFRQRNRQFQYREAA | 2.88
10 | FQEYDTDCEVFRQRDRQFQYREAA | 3.43
11 | FQEYDTDCEVFRQRKRQFQYREAA | 2.22
12 | FQEYDTDCEVFRQRIRQFQYREAA | 2.44
13 | FQEYDTDCEVFRQRLRQFQYREAA | 2.42
14 | FQEYDTDCEVFRQRWRQFQYREAA | 2.62
15 | FQEYDTDCEVFRQRCRQFQYREAA | 2.83
16 | FQEYDTDCEVFRQRTRQFQYREAA | 2.66
17 | FQEYDTDCEVFRQRQRQFQYREAA | 3.01
18 | FQEYDTDCEVFRQRGRQFQYREAA | 2.85
19 | FQEYDTDCEVFRQRMRQFQYREAA | 2.84
20 | FQEYDTDCEVFRQRHRQFQYREAA | 3.33
21 | FQEYDTDCEVFRQRRRQFQYREAA | 2.76
22 | FQEYDTDCEVFRQRPRQFQYREAA | 3
23 | FQEYDTDCEVFRQRFRQFQYMEAA | 2.69
24 | FQEYDTDCEVFRQRFRQFQYPEAA | 2.44

Row | Variant | protein stability index
25 | FQEYDTDCEVFRQRFRQFQYEEAA | 3.16
26 | FQEYDTDCEVFRQRFRQFQYVEAA | 2.51
27 | FQEYDTDCEVFRQRFRQFQYYEAA | 2.54
28 | FQEYDTDCEVFRQRFRQFQYCEAA | 2.92
29 | FQEYDTDCEVFRQRFRQFQYLEAA | 1.91
30 | FQEYDTDCEVFRQRFRQFQYDEAA | 3.13
31 | FQEYDTDCEVFRQRFRQFQYSEAA | 2.77
32 | FQEYDTDCEVFRQRFRQFQYAEAA | 2.44
33 | FQEYDTDCEVFRQRFRQFQYGEAA | 3.14
34 | FQEYDTDCEVFRQRFRQFQYTEAA | 2.86
35 | FQEYDTDCEVFRQRFRQFQYIEAA | 2.71
36 | FQEYDTDCEVFRQRFRQFQYKEAA | 2.65
37 | FQEYDTDCEVFRQRFRQFQYNEAA | 2.62
38 | FQEYDTDCEVFRQRFRQFQYQEAA | 2.96
39 | FQEYDTDCEVFRQRFRQFQYFEAA | 2.91
40 | FQEYDTDCEVFRQRFRQFQYWEAA | 1.75
41 | FQEYDTDCEVFRQRFRQFQYHEAA | 2.53
42 | FQEYDTDCEVFRQRFRQFQYREAN | 2.65
43 | FQEYDTDCEVFRQRFRQFQYREAS | 2.55
44 | FQEYDTDCEVFRQRFRQFQYREAT | 2.35
45 | FQEYDTDCEVFRQRFRQFQYREAI | 2.08
46 | FQEYDTDCEVFRQRFRQFQYREAF | 2.13
47 | FQEYDTDCEVFRQRFRQFQYREAD | 2.8
48 | FQEYDTDCEVFRQRFRQFQYREAK | 2.76

Row | Variant | protein stability index
49 | FQEYDTDCEVFRQRFRQFQYREAE | 2.95
50 | FQEYDTDCEVFRQRFRQFQYREAR | 3.04
51 | FQEYDTDCEVFRQRFRQFQYREAQ | 3.13
52 | FQEYDTDCEVFRQRFRQFQYREAL | 2.64
53 | FQEYDTDCEVFRQRFRQFQYREAH | 1.96
54 | FQEYDTDCEVFRQRFRQFQYREAG | 2.51
55 | FQEYDTDCEVFRQRFRQFQYREAC | 2.96
56 | FQEYDTDCEVFRQRFRQFQYREAP | 2.77
57 | FQEYDTDCEVFRQRFRQFQYREAM | 2.13
58 | FQEYDTDCEVFRQRFRQFQYRCAA | 2.39
59 | FQEYDTDCEVFRQRFRQFQYRDAA | 2.91
60 | FQEYDTDCEVFRQRFRQFQYRGAA | 2.35
61 | FQEYDTDCEVFRQRFRQFQYRPAA | 1.72
62 | FQEYDTDCEVFRQRFRQFQYRRAA | 1.65
63 | FQEYDTDCEVFRQRFRQFQYRQAA | 2.17
64 | FQEYDTDCEVFRQRFRQFQYRNAA | 2.39
65 | FQEYDTDCEVFRQRFRQFQYRIAA | 1.99
66 | FQEYDTDCEVFRQRFRQFQYRHAA | 2.36
67 | FQEYDTDCEVFRQRFRQFQYRMAA | 1.83
68 | FQEYDTDCEVFRQRFRQFQYRFAA | 2.69
69 | FQEYDTDCEVFRQRFRQFQYRAAA | 2.43
70 | FQEYDTDCEVFRQRFRQFQYRKAA | 2.75
71 | FQEYDTDCEVFRQRFRQFQYRVAA | 2.12
72 | FQEYDTDCEVFRQRFRQFQYRYAA | 1.95

Row | Variant | protein stability index
73 | FQEYDTDCEVFRQRFRQFQYRSAA | 2.07
74 | FQEYDTDCEVFRQRFRQFQYRLAA | 2.22
75 | FQEYDTDCEVFRQRFRQFQYRTAA | 2.62
76 | FQEYDTDCEVFRQRFRWFQYREAA | 2.17
77 | FQEYDTDCEVFRQRFRLFQYREAA | 2.75
78 | FQEYDTDCEVFRQRFREFQYREAA | 2.85
79 | FQEYDTDCEVFRQRFRAFQYREAA | 2.67
80 | FQEYDTDCEVFRQRFRIFQYREAA | 2.6
81 | FQEYDTDCEVFRQRFRHFQYREAA | 2.44
82 | FQEYDTDCEVFRQRFRMFQYREAA | 2.7
83 | FQEYDTDCEVFRQRFRKFQYREAA | 2.42
84 | FQEYDTDCEVFRQRFRYFQYREAA | 2.86
85 | FQEYDTDCEVFRQRFRNFQYREAA | 2.44
86 | FQEYDTDCEVFRQRFRCFQYREAA | 2
87 | FQEYDTDCEVFRQRFRPFQYREAA | 1.97
88 | FQEYDTDCEVFRQRFRTFQYREAA | 2.51
89 | FQEYDTDCEVFRQRFRVFQYREAA | 2.3
90 | FQEYDTDCEVFRQRFRGFQYREAA | 2.22
91 | FQEYDTDCEVFRQRFRDFQYREAA | 3.13
92 | FQEYDTDCEVFRQRFRRFQYREAA | 2.31
93 | FQEYDTDCEVFRQRFRSFQYREAA | 2.39
94 | FQEYDTDCEVFRQRFRFFQYREAA | 1.71
